Results taken from the DeepSol protein solubility set.

assay: soluble on expression in E. coli; label from the status in PepcDB or PDB records

Sequence	soluble on expression in E. coli
MFRRLILRQAAAVAAESKIACHHTVHGFEQRRGLHSRNEKAMEYVAKGWSAIKEVERVIDYCELNDRRLIPLLRGAKENFELALEADNLNTHARYWLSKLHLKYHVPGACKAVGAALLVEAADMGNADAQYELGCRLRVENDHVQSDQQAFHYIENAVDQLHPGALYLLGIVYLTGDCVKQDVDSAIWCFHRASEKGHAGAAIAYGSLLLRGVQVPESLTKLNVVGVSPPKRARKNLENPEMNPLEMAKEQFQIAARAGCDLGLKWLQRVEQEEKLLMREQDNECAYV	not soluble
SNAMTEARKIPKPSFPYGSPGELNSFLPYLLTRITHIWSSELNQALASEKLPTPKLRLLSSLSAYGELTVGQLATLGVMEQSTTSRTVDQLVDEGLAARSISDADQRKRTVVLTRKGKKKLAEISPLINDFHAELVGNVDPDKLQTCIEVLGEILKGKTDY	soluble
MKRSIKHIYLLSDATGETVERVVRAALSQFRDVEARFHRVTRIRSREDVIWALEEVLREPGMVVYTLVDTELAQLLRDEAEAHGLDAIDLISPLLFKLSDFFGEAPQKEPGLLHQINSEYHKRVDAVDFTVKHDDGQDPRGLAKADFILVGVSRSSKTPLSMYLAHKGYKVANVPIVKGIDPPPELYKVDQKRVVGLIIDAERLVQIRTARLRNLGQMPKGSYADYERIEEELEFCRRLYRRNPQWLVIDVTKKSVEESAAEIIQKLAGLEHHHHHH	not soluble
MNTRNFSLPQLQNLPIEEARIVADALAVHATSRQIDSAASKLAALAEAGLKGDRQAYAAYQQLLYVLSLSDDVATAQTRRWLARAIYRVEERFMPAADLSRALSEEDFQKRLEQEIAAQSRERHPMSQYVFSGSASRAQLQVFLRHQWFRTFRLYRDAADLLVNLTDVDEAAALARYLYGELGEEDEKGSHPRLLAKLLEAIGLEADFQAVSTMPEEIAYLNNRARAFRHAEVGWGLAVFYITELVVPGNHEKLYRALLQAGLSEDQAEYYKVHISLVPPRAKREWQLIARRIPDVQFQNAFLTSLSQHFRVERAYYDAIWEEMQSVK	soluble
MASQTQGIQQLLAAEKRAAEKINEARKRKLQRTKQAKQEAQAEVEKYKQQREAEFKAFEQQYLGTKEDIESKIRRDTEDQISGMKQSVAGNKQAVIVRLLQLVCDIKPELHHNLTLQKKLHGQFAA	not soluble
MSLSINSETLVNHMNHEIAAIQPSDILAFNAEIANIPGIVRLTLGEPDFNTPEHVKQAAIESIEADESHYAPSNGTLALRTAAAEFLAAKYDVHYDPASEVIITAGATGGIYTALTSILNPGDEVLIPTPIFPLYIAIVKLSGATPVFMDTSDNGFVLSPDQLQTTLAAHPKTKAVVLNFPSNPTGVTYRHDDLKALAAVLADQPIFVLSDEIYSELTYGEPHESIANYLPTQTILLNGVSKSHAMTGWRIGIMCAPKAITAQLGKIHQFTVTSTTTNAQAAAAGLKQLTSRTAGVDTIDIPAAKAAGLVVTNVEGHHHHHH	not soluble
GSKKSRLWVDRSGTFKVDAEFIGCAKGKIHLHKANGVKIAVAADKLSNEDLAYVEKITGFSLEKFKAN	soluble
MGSDKIHHHHHHMPAMQHTQPSRPQLVYLAFGPATYHQEACFSIVSALAQLGSAAGEAMDIQVYTDNAQPYARLPVTVHLLDEATRQAWNAPHGYHFRSKHVLLRQVLQQHPLAVLIDTDTFFRTSPLHLFARVAPNRLLCNAIGTRYGADQKCLLYKNLLAILESRGLADCQMPLVNSGVIGLTAENCDTLDRSIAMMDEFYPLAREAYTLEEFCLAVAAYRNLELAECTDVIHHYWSRKAQFRAKIQAWLRKHEHDPLSPPALADVALVNDQLPRPPTLHRLGYKALSLTLPSHERQFARELLYGCYPYPNEFDRACASAWWDKALENLNDRYGHVEPERLRQCLRHPGLRLSLGERRKDIEAHLLRSTQA	not soluble
SQTRDLQGGKAFGLLKAQQEERLDEINKQFLDDPKYSSDEDLPSKLEGFKEKYMEFDLNGNGDIDIMSLKRMLEKLGVPKTHLELKKLIGEVSSGSGETFSYPDFLRMMLGKRSAILKMILMYEEKAREK	not soluble
AVSGLYSSSDDVIELTPSNFNREVIQSDGLWLVEFYAPWCGHCQRLTPEWKKAATALKDVVKVGAVNADKHQSLGGQYGVQGFPTIKIFGANKNKPEDYQGGRTGEAIVDAALSALR	soluble
MEDYLVKALCYKGSIRAYAISATETVSEAQRRHDTWSSSTAALGRTLIGALLLGATLKGDDKLTVKVQGNGPAGAIIVDSNGRGETKGYIKNPHVSLKLNATGKIDVRGAVGNEGIFTVIKDLGLKETFSGQTPIVSGEIGEDFTYFMAVSEQVPSAIGLGVLVDTDESVKAAGGFMIQVMPGADESTIDFIEQRLAEVPPISQLLENGETPEQVLYRLLGEDEVEILEKMPVQFKCDCSKEKFATALIAVGIDELNAMIDEDHGAEAVCQFCNNKYHYSEEELIELRDEAIRNTKQK	not soluble
MGSDKIHHHHHHMWFCFLKSGFIIIKQILSTPFFSYKYNIKILINFKLISNIIEHKMLEYANKITLKGDNIMKFAVITDIHGNFDALQTVLDDIDSRDDIEKIYNLGDNIGIGHETNKVLDTIFDRDDMEMIAGNHDEAIMSLVNGTPYPEDLKGKFYEHHQWIEGHLDESYYDEINQLPRYIEMTIKGKKILFIHYEIENDKMSAPIDEQPFAPITKDDEQAISELFKDKEADLILFGHNHRLHMFDDKSTVYFNPGSVGLNNGSNTVYGIITVNEKGISVERVKLAYNNEEFLAGFEEKQVPAREFIFKNFI	not soluble
MQIEKLRGQGLDEFFQGILTLENLEECYAFFDDVCTVNEIQSMAQRFQVAKMLHDGKTYNVIESETGASTATISRVKRSLHYGNDMYDVVFSRMTKPE	not soluble
MGSSHHHHHHSSGRENLYFQGHMCILMATRAHPDYELILISNRDEFLARKTHATCWHNNDFILSPYDLAKTSAEKQIFGTWSGINKEGKLATILNLKLDNEQNNTKSRSRGLLPFIFLSIHKADFEDWDNYKKFEGHYDGLKSTGDFNFFYGDVIKKQYKVIDSLGRTFDVLSSTCRKDLDSYMVVSNGKFYDSSSIPGQAWEKVKVARDSLENLVLENIESDEEKIISSCFQLASKSSLPSTISNPDVLQMVDPNVTMNTIYVPPLRRPPRDDLGASIPDGDYYGTRSQIVLLVSKDSTRVTFIERVLYSSDEDVRKYSVTSPKEEKRFKFKL	soluble
MWDKRELTDLAIISAIGIDRTNDSNYVLHLQIINPGNVAGGLQGGGAGDRPPVSVYSIEGNNITEALRKASMKVSRRLYFAHTNLVVINEKLAKEEGLDFVLDNLDRDTEFRTTATFVVAHKTKAENIVKILTPIDKIPSNKVNKTLDFTEAQYGRVVKINIQDVLKTLAANTMAPVIPGYMMIGDDKKGVSMENTQATDPKAILQADGLAVFDKAGYLKYWLEDDESVGAVWLMNKIQHTFINADWGKTKDAVSLQVTHQDTKLVPKMRNGRPYIHVKVSVEGIIDAVKYPFQLSDPKVLAAIEKALNKELEKEISHTVKKIKKNKIDFIGFGDTIYRKYPEQWEKMKDTWDKEYLPELPIDVKAETYIRRTGLRNNPIKHQFKDDLEHHHHHH	not soluble
MSLLNTYEPWKFAFSQEETDFNNLKEGAWGIIGVPFDSTTSYHPGSRFGPIVVREASYGFEKYNTIFNTQLDNIFYDFGDVNVVFGNCKKTCDIIEDTVNELSDLKIKPLTIGGEHSLTIGVLNSLTKKYDDLTVVHLDAHRDLADTFIGELYSHASVMKRVHEMGVKELVQIGIRSASKEEEDFVKNQSNITTFKNNDVFHHLDNIEYYLSIIDTPIYLSIDMDVFDPSIAPTVGNPTPNGIAYGHIEAMLQTLSLKNVVGMDVVETAGDRLGDITAVSASKIIYDFLSLLEGHHHHHH	soluble
MNFHFTLDNDRKRRRSLSIDIDINFNDKAPGTSSDNEQRAPKRRADEEAVNAVPKNLLTTSSTFARAVIPAAPAISSANNKMAPQSVTATAKTTTNRGKVSGEGEYQLIKNEVLCSPYGNQYEVLEFLGKGTFGQVVKAWKKGTSEIVAIKILKKHPSYARQGQIEVSILSRLSNENSEEFNFVRAFECFNHKSHTCLVFEMLEQNLYDFLKQNKFMPLPLNAIRPILFQVLTALLKLKSLGLIHADLKPENIMLVDPQQQPYRVKVIDFGSASHRSKAVTNTYLQSRYYRAPEIILGLPFNESIDMWSLGCVIAELFLGWPLYPGSSEYDQIRFIIQTQGLPPTSMLESASKLHRFFKEVKSESPNHTNVGGSYYRLKTVEEYEASSSTAKSKETRKYIFNVIDDISRVCYGFESDPVEHLCDRIDRQEFVDVLKKMLVLNPDFRITPAEGLESKFVTMTHINGYNFANYVHEAHKRMEICRKPGPAMATPYRAANVATPITPVEKPPAPKLQQPMIAVLPQLNQIAATNIPPVPTQPDLTNLMHHYSQMAAATGSAATAAQFFYQPLPPAPLFQYAQLHHPFAARPPHFLSLATPSHMVPQFVPVPIMDPSMLQGQWPPGAAQQFAVLANDIMRVPAPQGINQMFASTPQTFSLPQFLSSSIPSATTAFNGNAPNIPFPEENSSWALGTAAQQQQQQAQRAQSMINGNVKVKPLAAQPKKNSPAPSVITLSSDEDSNGAGSSNSGSTTRTGAVNPVRNDTLPMGNTIKTEDILVPPTTFDGQLPNLQYFPGSHLFDPKTVAGLLPNPFLDTSHIPRAFN	not soluble
GLDNELSLVDGQDRTLTVQQWDTFLNGVFPLDRNRLTREWFHSGRAKYIVAGPGADEFEGTLELGYQIGGPGIQEVATFSVDVSGAEGGVAVSNAHGTVTGAAGGVLLRPFARLIASTGDSVTTYGEPWNMN	soluble
MLNQLDNLTERVRGSNKLVDRWLHVRKHLLVAYYNLVGIKPGKESYMRLNEKALDDFCQSLVDYLSAGHFSIYERILHKLEGNGQLARAAKIWPQLEANTQQIMDYYDSSLETAIDHDNYLEFQQVLSDIGEALEARFVLEDKLILLVLDAARVKHPA	soluble
MFARNFFKGGTKVPHFKNTAECETVKMGVPEKVVIPMLQHVGAPCEPCVKKGDTVRVGQVIGNSDKYISSPIHSSVSGTVNDVAPMLFAGGIYVTAVEIKTDGKQEIYEGIKPPSFSNSKEFISAIRESGLVGLGGAGFPAHVKLSPPPDKKIDTLIINAAECEPYITSDYREIIENSWNVVSGINIIMEILGIENVLIGIEDNKPEAIKEMTRVAATDDRINVIKLKSRYPQGAEKMLIYATTGRKVPPGKLPADVGVIVMNVNSVSFISEYIKTGMPLIKKRVTVDGPSVKRPGNVEVLIGTPISEVFSFCGGFGIVPKKILMGGPMMGIAQYTLDTPVLKHTNALLAFDETTAVLPKEQACIRCGRCVRACPMNLLPLYLNNNSIRGNIEELNRYHVMDCIECGSCAYVCPAKINLVQSIRLGKAQVRQAAAKGGN	not soluble
MSTQTVTIKSLGAQGDGIAHCPDGPVYVPFALPGETVAIAKVKDQGTVMSITEASADRRDPVCRHFGPEGINGTCGGCSLQHLADQPYHAFKRELVVSALRSKGLTPPVDDLVICRPGERRRAVFAARKTEKGLLLGFSQANSHHIVAIEECPVTSPGIVSRFDAIRAIGLSMVANAEPFRITVLETLSGLDISVEGIKSVNDKQRRTLTETVLAMRGIARVSLSGEILIEPQKPIIEFGGIPVSPPAGGFTQATKQAEDAMAELMLAHVGKSKRIADLFCGSGTFALRLARIGRVHAVEAEDKALKALDFAARNTQGLKPVSVEKRDLFRRPLMTSELKNYDAVVFDPPRAGAEVQCKELARSTVKKIVAVSCNPLTLARDLAILTEGGYRVTRVTPVDQFLWSPHVEAVAVLEK	not soluble
